The experiment concerns the target CD81 (UniProt P60033). The experiment is described as follows: cell-based or functional assay.
UniProt P60033, sequence (P60033 whole entry): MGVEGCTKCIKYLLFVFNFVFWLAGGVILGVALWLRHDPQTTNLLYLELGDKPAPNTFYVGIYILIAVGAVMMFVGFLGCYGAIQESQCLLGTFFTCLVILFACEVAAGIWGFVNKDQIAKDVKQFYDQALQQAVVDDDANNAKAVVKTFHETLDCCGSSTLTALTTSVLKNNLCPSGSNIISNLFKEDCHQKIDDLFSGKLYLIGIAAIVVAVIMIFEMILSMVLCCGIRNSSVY

The substance “PCSK9 (proprotein convertase subtilisin/kexin type 9) (from UniProt Q8NBP7 31-692) (enzyme)” came in with a degradation of total CD81, Western blot of HepG2 cells of 25%.

The values are drawn from patent US20170224816A1.
